Key:
[1] = tested on: CD8+ T cells co-cultured with MM.1S multiple myeloma cells; assay: PD-1 induction on CD8+ T cells co-cultured with MM.1S-luc cells, flow cytometry; assay type: cell-based, human; conditions: 1 nM BCMAxCD3 bispecific
Description: CD3+ T cells from PBMCs (Stem Cell Technologies) were negatively selected using EasySep Human T cell enrichment kit (Stem Cell Technologies). 10,000 target Multiple Myeloma MM.1S cells expressing luciferase (MM.1S-luc) were seeded with 50,000 CD3^+ pan T cells in a clear 96-well V-bottom plate. Cells were treated with 1 nM BCMAxCD3 bispecific antibody and PD-1 expression was analyzed at 3, 24, 48 and 72 hours after addition of the BCMAxCD3 bispecific. At the specified time points, cells were collected from the wells, washed with PBS+2% FBS, and stained with ZombieNlR Viability dye (Biolegend) in PBS for 20 minutes at room temperature, followed by staining with antibodies against human CD8 and PD-1 (Biolegend). Samples were analyzed using FlowJo flow cytometry analysis software. Dead cells were removed from analysis by gating on ZombieNlR negative population. Samples were further gated on CD8^+ positive population. Percentage of PD-1^+ cells is expressed as PD-1 positive cells within the CD8^+ population.

[2] = tested on: adult patients with advanced multiple myeloma; assay: Phase 1 clinical study NCT03269136, safety (DLT, CRS); assay type: in vivo
Description: This Example illustrates an ongoing Phase 1 open-label, multicenter clinical study of PF-06863135 (BCMA×CD3 bispecific) as monotherapy and in combination with sasanlimab, lenalidomide or pomalidomide, in adult patients with advanced multiple myeloma who have relapsed from or are refractory to standard therapy. The study has been registered on ClinicalTrials.gov with identifier NCT03269136 and was first posted August 2017. Study results for Part 1 of the trial and additional arms for the study are described in this Example.
Part 1 of the Study is the […] single agent dose escalation arm at the dose levels of 0.1, 0.3, 1, 3, 10, 30, and 50 μg/kg Q1W by intravenous (IV) administration, and at the dose levels of 80, 130, 215, 360, 600 and 1000 μg/kg Q1W by subcutaneous (SC) administration. Upon reaching maximum tolerated dose (MTD)/maximum administered dose (MAD), patients can be treated at a dose level selected from the foregoing dose levels described in this paragraph, and below the MTD/MAD fora Q2W administration, both IV and SC, to further support the recommended phase 2 dose (RP2D) decision. For the study, dose limiting toxicity observation period is set at 21 days for Q1W dosing and 28 days for Q2W dosing. The treatment cycle, aka cycle, for Q1W dosing would be 3 weeks, and for Q2W dosing would be four weeks.
Clinical Outcome of Part 1 of the Study. As of 15 Apr. 2020, a total of 23 patients were enrolled in Part 1 of the study and had been treated with PF-06863135 administered intravenously (IV) at 0.1 (N=2), 0.3 (N=3), 1 (N=2), 3 (N=3), 10 (N=2), 30 (N=5), and 50 (N=6) μg/kg. As of Aug. 21, 2020, a total of 30 patients were enrolled in Part 1 of the study and had been treated with PF-06863135 administered subcutaneously (SC) at 80 (N=6), 130 (N=4), 215 (N=4), 360 (N=4), 600 (N=6) and 1000 (N=6) μg/kg. Safety and efficacy data were available for in 23 IV and 30 SC treated patients per IMWG (International Myeloma Working Group) criteria.
Part 1.1 of the Study is an alternative maintenance dose escalation arm for single agent PF-06863135. If excessive toxicity occurs or the maximum tolerated dose (MTD)/maximum administered dose (MAD) is reached at a dose level that is earlier than desired in Part 1 of the study described above, a priming dose will be administered one week prior to the day 1 cycle 1 administration of the dose (maintenance dose) at this dose level and for all subsequent dose levels in the dose escalation that may be initiated for Part 1.1. The priming dosing will be at a lower dose level than the maintenance dose.
Clinical outcome of Part 1.1 of the Study. As of Feb. 4, 2021, a total of 20 patients were enrolled and treatment in Part 1.1 of the Study, with cohort of 7 patients at a 600 μg/kg priming dose followed by 1000 μg/kg Q1W dosing, and a cohort of 13 patients at a 600 μg/kg priming dose followed by 1000 μg/kg Q2W dosing. The CRS in these two cohorts is described in Table 13. Introducing of priming dose decreased medium duration of CRS by 50%, from 4 days to 2 days. The dose frequency in part 1.1 of the study (Q1W v. Q2W) had no impact on the CRS. Patient response of Part 1.1 of the Study is described in Table 14.

[3] = 600 μg/kg priming, 1000 μg/kg Q1W or Q2W SC, N = 20
[4] = all SC treated patients (Part 1)

“PF-06863135: heterodimeric humanized full-length bispecific antibody, one BCMA binding arm and one CD3 binding arm, modified human IgG2Δa Fc” was tested, and the “% PD-1 (of CD8+ T cells)” value ([1]; 3 hours) was 12.8 ± 0.6%, the “% PD-1 (of CD8+ T cells)” value ([1]; 24 hours) was 18.9 ± 1.2% and the “% PD-1 (of CD8+ T cells)” value ([1]; 48 hours) was 69.9 ± 3.1%. For the same substance, the “% PD-1 (of CD8+ T cells)” value ([1]; 72 hours) was 69.9 ± 3.1%, the “Patients with CRS (number)” value ([2]; 10 μg/kg IV cohort) was 1 and the “patients with CRS (percent)” value ([2]; 10 μg/kg IV cohort) was 50.0%. For the same substance, the “Patients with CRS (number)” value ([2]; 30 μg/kg IV cohort) was 4, the “patients with CRS (percent)” value ([2]; 30 μg/kg IV cohort) was 80.0% and the “patients with dose limiting toxicities (DLTs)” value ([2]; 30 μg/kg IV cohort) was 1 patient. For the same substance, the “patients in whom CRS also occurred after second, third or fourth dose” value ([2]; 50 μg/kg IV) was 3 patients, the “Patients with CRS (number)” value ([2]; 50 μg/kg IV cohort) was 6 and the “patients with CRS (percent)” value ([2]; 50 μg/kg IV cohort) was 100.0%. For the same substance, the “patients with dose limiting toxicities (DLTs)” value ([2]; 50 μg/kg IV cohort) was 1 patient, the “CRS Grade 1 (number of patients)” value ([2]; 80 μg/kg Q1W SC, N = 6) was 2 and the “CRS Grade 2 (number of patients)” value ([2]; 80 μg/kg Q1W SC, N = 6) was 1. The “CRS Mean duration” value ([2]; 80 μg/kg Q1W SC, N = 6) was 1 days, the “Patients with CRS (number)” value ([2]; 80 μg/kg Q1W SC, N = 6) was 3 and the “CRS Grade 1 (number of patients)” value ([2]; 130 μg/kg Q1W SC, N = 4) was 2. For the same substance, the “CRS Grade 2 (number of patients)” value ([2]; 130 μg/kg Q1W SC, N = 4) was 0, the “CRS Mean duration” value ([2]; 130 μg/kg Q1W SC, N = 4) was 3 days and the “Patients with CRS (number)” value ([2]; 130 μg/kg Q1W SC, N = 4) was 2. The “CRS Grade 1 (number of patients)” value ([2]; 215 μg/kg Q1W SC, N = 4) was 3, the “CRS Grade 2 (number of patients)” value ([2]; 215 μg/kg Q1W SC, N = 4) was 0 and the “CRS Mean duration” value ([2]; 215 μg/kg Q1W SC, N = 4) was 3 days. The “Patients with CRS (number)” value ([2]; 215 μg/kg Q1W SC, N = 4) was 3, the “CRS Grade 1 (number of patients)” value ([2]; 360 μg/kg Q1W SC, N = 4) was 2 and the “CRS Grade 2 (number of patients)” value ([2]; 360 μg/kg Q1W SC, N = 4) was 1. The “CRS Mean duration” value ([2]; 360 μg/kg Q1W SC, N = 4) was 1.7 days, the “Patients with CRS (number)” value ([2]; 360 μg/kg Q1W SC, N = 4) was 3 and the “CRS Grade 1 (number of patients)” value ([2]; 600 μg/kg Q1W SC, N = 6) was 4. The “CRS Grade 2 (number of patients)” value ([2]; 600 μg/kg Q1W SC, N = 6) was 2, the “CRS Mean duration” value ([2]; 600 μg/kg Q1W SC, N = 6) was 1.7 days and the “Patients with CRS (number)” value ([2]; 600 μg/kg Q1W SC, N = 6) was 6. For the same substance, the “decrease of duration of CRS by introducing priming dose” value ([2]; 600 μg/kg priming then 1000 μg/kg vs 1000 μg/kg without priming, SC) was 50%, the “CRS Grade 1 (number of patients)” value [2, 3] was 11 and the “CRS Grade 2 (number of patients)” value [2, 3] was 9. For the same substance, the “CRS Mean duration” value [2, 3] was 2 days, the “Patients with CRS (number)” value [2, 3] was 20 and the “patients with CRS (percent)” value [2, 3] was “(100%)”. The “CRS Grade 1 (number of patients)” value ([2]; 1000 μg/kg Q1W SC, N = 6) was 5, the “CRS Grade 2 (number of patients)” value ([2]; 1000 μg/kg Q1W SC, N = 6) was 1 and the “CRS Mean duration” value ([2]; 1000 μg/kg Q1W SC, N = 6) was 4 days. For the same substance, the “Patients with CRS (number)” value ([2]; 1000 μg/kg Q1W SC, N = 6) was 6, the toxicities ([2]; 600 and 1000 μg/kg SC) was “tolerable and manageable” and the “patients with dose limiting toxicities (DLTs)” value ([2]; IV cohorts, 23 patients, febrile neutropenia Grade 3 and electrocardiogram QT prolongation Grade 1) was 2 patients. For the same substance, the “CRS onset after dosing” value ([2]; IV cohorts, each patient with CRS) was at most 2 days, the “Cytokine release syndrome (CRS), rank among adverse events” value ([2]; Part 1 of the study) was “most common adverse event reported” and the “impact of dose frequency (Q1W v. Q2W) on the CRS” value ([2]; Part 1.1, 600 μg/kg priming, 1000 μg/kg SC) was “no impact”. The “patients with dose limiting toxicities (DLTs)” value ([2]; SC cohorts, 30 patients) was “No patients”, the “CRS onset after dosing” value ([2]; SC cohorts, primarily) was at most 2 days and the “Patients with CRS (number)” value ([2]; all IV cohorts) was 11 patients. For the same substance, the “patients with maximum Grade 1 CRS (number)” value ([2]; all IV treated patients) was 6, the “patients with maximum Grade 1 CRS (percent)” value ([2]; all IV treated patients) was 26.1% and the “patients with maximum Grade 2 CRS (number)” value ([2]; all IV treated patients) was 5. For the same substance, the “patients with maximum Grade 2 CRS (percent)” value ([2]; all IV treated patients) was 21.7%, the “patients with maximum Grade 1 CRS (number)” value [2, 4] was 18 and the “patients with maximum Grade 1 CRS (percent)” value [2, 4] was 60.0%. For the same substance, the “patients with maximum Grade 2 CRS (number)” value [2, 4] was 5, the “patients with maximum Grade 2 CRS (percent)” value [2, 4] was 16.7% and the “CRS severity in SC-treated vs IV-treated patients” value ([2]; despite higher overall dose exposure in SC-treated patients) was “less severe”. For the same substance, the “timing of CRS relative to doses” value ([2]; results of Part 1 of the Study) was “primarily occurs after the initial dose”.

From patent US20230340137A1, “METHODS, THERAPIES AND USES FOR TREATING CANCER” (PFIZER INC., priority 2020, published 2023)
